Experimental data reported in article PMC7919409, “Crystal structures of adenylylated and unadenylylated PII protein GlnK from Corynebacterium glutamicum” (Acta Crystallographica. Section D, Structural Biology, 2021).

B1: unmodified unadenylylated GlnK from Corynebacterium glutamicum (natural protein, C. glutamicum)
chain: SLHACRMKLITAIVKPFTLTDIKDALEQAGVQGMTVTETQGFGQQKGHTEVYRGAEYAVDFVPKVKIEVIISDAQAEEVINIIVETARTGKVGDGKVWMTNIEELVRVRTGERGEAAL
notes: not part of GlnK; PII protein GlnK, Corynebacterium glutamicum, UniProt Q79VF2; each subunit spans 112 residues; The His tag was cut off with thrombin; Homotrimer; also called unGlnK; UnGlnK; source: E. coli BL21(DE3), purified (HisTrap FF, thrombin cleavage of the His tag, Superdex 75 size-exclusion chromatography); not shown: His tag, N-terminal, cleaved
B2: adenylylated GlnK from Corynebacterium glutamicum (natural protein, C. glutamicum)
chain: MKLITAIVKPFTLTDIKDALEQAGVQGMTVTETQGFGQQKGHTEVYRGAEYAVDFVPKVKIEVIISDAQAEEVINIIVETARTGKVGDGKVWMTNIEELVRVRTGERGEAAL
modifications: adenylylated Tyr51 (AMP moiety covalently linked to the hydroxyl group of Tyr51); almost fully adenylylated by mass spectrometry
notes: PII protein GlnK, Corynebacterium glutamicum, UniProt Q79VF2; untagged (stop codon inserted before the Xa-Strep stretch of the vector); Homotrimer; also called adGlnK; AdGlnK

Key:
[1] = target: the molecule itself; assay: crystal structure; unGlnK, 2.2 Å, space group P4(3)2(1)2, one trimer per asymmetric unit; sitting drop, 292 K, 2.0 M ammonium sulfate, 5%(v/v) 2-propanol
[2] = target: the molecule itself; assay: crystal structure; adGlnK, 1.8 Å, space group P3(2), six chains per asymmetric unit; hanging drop, 292 K, MgCl2, CaCl2, MOPS/HEPES pH 7.1, MPD, PEG 1000, PEG 3350

| Protein | stoichiometry N [1] | stoichiometry N [2] |
| --- | --- | --- |
| B1 | 3 | – |
| B2 | – | 3 |
